Consider 94 variants from the supplement of paper PMC10567573.

The chains are these.
B1: MLL5 (parent)
chain: HDDGYMICCDKCSVWQHIDCMGID
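Also: lentivirally expressed fusions sorted by FACS into six bins by GFP to DsRed ratio, PSI derived from sequencing read proportions per bin multiplied by bin number.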

The variants in this data set derive from B1. Nature of the data set: protein stability index of a GFP-peptide fusion (GPS, HEK-293T) (PSI 1-6); higher = more stable. As to conditions: c terminus: a fixed tail appended.
Regarding HDDGYMICYDKCSVWQHIDCMGID, the protein stability index was 1.47.

As for HDDGYMICHDKCSVWQHIDCMGID, the protein stability index turned out to be 2.86.

On to HDDGYMICIDKCSVWQHIDCMGID, for which the protein stability index was determined as 2.1.

Turning to HDDGYMICLDKCSVWQHIDCMGID, the protein stability index was determined as 2.12.

In the case of HDDGYMICMDKCSVWQHIDCMGID, the protein stability index is 1.99.

Take HDDGYMICPDKCSVWQHIDCMGID: the protein stability index was 3.03.

Consider HDDGYMICVDKCSVWQHIDCMGID, for which the protein stability index came out at 2.67.

For HDDGYMICRDKCSVWQHIDCMGID, the protein stability index is 2.76.

For the variant HDDGYMICEDKCSVWQHIDCMGID, the protein stability index was determined as 3.42.

Turning to HDDGYMICKDKCSVWQHIDCMGID, the protein stability index stood at 2.85.

HDDGYMICGDKCSVWQHIDCMGID: the protein stability index worked out at 3.81.

In the case of HDDGYMICDDKCSVWQHIDCMGID, the protein stability index is 3.74.

Turning to HDDGYMICQDKCSVWQHIDCMGID, the protein stability index is 3.

With HDDGYMICTDKCSVWQHIDCMGID, the protein stability index turned out to be 3.75.

Regarding HDDGYMICWDKCSVWQHIDCMGID, the protein stability index stood at 2.16.

Regarding HDDGYMICSDKCSVWQHIDCMGID, the protein stability index stood at 3.81.

On to HDDGYMICFDKCSVWQHIDCMGID, for which the protein stability index turned out to be 2.43.

In the case of HDDGYMICADKCSVWQHIDCMGID, the protein stability index was 2.56.

On to HDDGYMICNDKCSVWQHIDCMGID, for which the protein stability index was found to be 2.77.

Take HDDGYMICCDLCSVWQHIDCMGID: the protein stability index is 2.23.

On to HDDGYMICCDMCSVWQHIDCMGID, for which the protein stability index is 1.55.

In the case of HDDGYMICCDGCSVWQHIDCMGID, the protein stability index was found to be 3.03.

For HDDGYMICCDNCSVWQHIDCMGID, the protein stability index came to 2.31.

Regarding HDDGYMICCDECSVWQHIDCMGID, the protein stability index was determined as 2.39.

In the case of HDDGYMICCDICSVWQHIDCMGID, the protein stability index was determined as 2.

With HDDGYMICCDACSVWQHIDCMGID, the protein stability index is 1.82.

Take HDDGYMICCDHCSVWQHIDCMGID: the protein stability index was 2.1.

Regarding HDDGYMICCDCCSVWQHIDCMGID, the protein stability index amounted to 3.26.

Turning to HDDGYMICCDDCSVWQHIDCMGID, the protein stability index stood at 2.79.

In the case of HDDGYMICCDQCSVWQHIDCMGID, the protein stability index is 2.94.

Consider HDDGYMICCDPCSVWQHIDCMGID, for which the protein stability index was determined as 2.4.

For the variant HDDGYMICCDFCSVWQHIDCMGID, the protein stability index turned out to be 1.05.

On to HDDGYVICCDKCSVWQHIDCMGID, for which the protein stability index is 3.1.

HDDGYYICCDKCSVWQHIDCMGID: the protein stability index turned out to be 2.14.

HDDGYWICCDKCSVWQHIDCMGID: the protein stability index was found to be 2.

For HDDGYNICCDKCSVWQHIDCMGID, the protein stability index was found to be 3.14.

Turning to HDDGYSICCDKCSVWQHIDCMGID, the protein stability index is 2.91.

As to HDDGYTICCDKCSVWQHIDCMGID, the protein stability index amounted to 2.41.

As for HDDGYRICCDKCSVWQHIDCMGID, the protein stability index is 3.35.

With HDDGYPICCDKCSVWQHIDCMGID, the protein stability index was found to be 2.96.

HDDGYQICCDKCSVWQHIDCMGID: the protein stability index came to 2.46.

Turning to HDDGYMICCPKCSVWQHIDCMGID, the protein stability index was found to be 2.36.

HDDGYMICCIKCSVWQHIDCMGID: the protein stability index turned out to be 3.54.

On to HDDGYMICCRKCSVWQHIDCMGID, for which the protein stability index is 2.4.

As to HDDGYMICCAKCSVWQHIDCMGID, the protein stability index came out at 1.71.

As to HDDGYMICCYKCSVWQHIDCMGID, the protein stability index came out at 2.88.

With HDDGYMICCFKCSVWQHIDCMGID, the protein stability index was 2.44.

Regarding HDDGYMICCSKCSVWQHIDCMGID, the protein stability index came out at 2.72.

For the variant HDDGYMICCQKCSVWQHIDCMGID, the protein stability index worked out at 2.29.

Turning to HDDGYMICCMKCSVWQHIDCMGID, the protein stability index came out at 2.95.

Regarding HDDGYMICCCKCSVWQHIDCMGID, the protein stability index came out at 2.71.

For HDDGYMICCEKCSVWQHIDCMGID, the protein stability index was 2.41.

With HDDGYMICCNKCSVWQHIDCMGID, the protein stability index stood at 2.41.

In the case of HDDGYMICCKKCSVWQHIDCMGID, the protein stability index stood at 2.51.

Regarding HDDGYMICCTKCSVWQHIDCMGID, the protein stability index was 1.69.

With HDDGYMICCGKCSVWQHIDCMGID, the protein stability index worked out at 1.92.

On to HDDGYMICCVKCSVWQHIDCMGID, for which the protein stability index was 3.07.

In the case of HDDGYMECCDKCSVWQHIDCMGID, the protein stability index turned out to be 3.23.

In the case of HDDGYMPCCDKCSVWQHIDCMGID, the protein stability index came out at 2.71.

As to HDDGYMDCCDKCSVWQHIDCMGID, the protein stability index came out at 3.42.

On to HDDGYMRCCDKCSVWQHIDCMGID, for which the protein stability index came out at 2.45.

As to HDDGYMACCDKCSVWQHIDCMGID, the protein stability index was 3.2.

For the variant HDDGYMTCCDKCSVWQHIDCMGID, the protein stability index was 2.93.

In the case of HDDGYMYCCDKCSVWQHIDCMGID, the protein stability index was 2.77.

With HDDGYMGCCDKCSVWQHIDCMGID, the protein stability index amounted to 3.82.

In the case of HDDGYMVCCDKCSVWQHIDCMGID, the protein stability index worked out at 2.79.

For the variant HDDGYMWCCDKCSVWQHIDCMGID, the protein stability index is 3.09.

Turning to HDDGYMCCCDKCSVWQHIDCMGID, the protein stability index came to 3.79.

HDDGYMFCCDKCSVWQHIDCMGID: the protein stability index is 2.72.

On to HDDGYMMCCDKCSVWQHIDCMGID, for which the protein stability index is 2.29.

HDDGYMNCCDKCSVWQHIDCMGID: the protein stability index was determined as 3.12.

With HDDGYMKCCDKCSVWQHIDCMGID, the protein stability index was 3.45.

Turning to HDDGYMHCCDKCSVWQHIDCMGID, the protein stability index amounted to 3.55.

On to HDDGYMLCCDKCSVWQHIDCMGID, for which the protein stability index amounted to 2.06.

Consider HDDGYMQCCDKCSVWQHIDCMGID, for which the protein stability index was determined as 3.51.

Take HDDGYMIRCDKCSVWQHIDCMGID: the protein stability index came to 2.51.

In the case of HDDGYMIGCDKCSVWQHIDCMGID, the protein stability index stood at 2.59.

Turning to HDDGYMIHCDKCSVWQHIDCMGID, the protein stability index worked out at 2.37.

In the case of HDDGYMINCDKCSVWQHIDCMGID, the protein stability index came to 2.43.

HDDGYMIECDKCSVWQHIDCMGID: the protein stability index amounted to 2.73.

As to HDDGYMITCDKCSVWQHIDCMGID, the protein stability index came out at 2.66.

With HDDGYMIWCDKCSVWQHIDCMGID, the protein stability index is 1.86.

In the case of HDDGYMIMCDKCSVWQHIDCMGID, the protein stability index was 1.68.

HDDGYMIACDKCSVWQHIDCMGID: the protein stability index is 3.27.

In the case of HDDGYMIFCDKCSVWQHIDCMGID, the protein stability index stood at 1.56.

Take HDDGYMIICDKCSVWQHIDCMGID: the protein stability index was determined as 1.9.

Regarding HDDGYMIQCDKCSVWQHIDCMGID, the protein stability index came to 2.96.

HDDGYMIVCDKCSVWQHIDCMGID: the protein stability index is 1.64.

Consider HDDGYMISCDKCSVWQHIDCMGID, for which the protein stability index worked out at 1.83.

As for HDDGYMILCDKCSVWQHIDCMGID, the protein stability index is 2.46.

HDDGYMIDCDKCSVWQHIDCMGID: the protein stability index was 3.19.

With HDDGYMIPCDKCSVWQHIDCMGID, the protein stability index came to 3.12.

On to HDDGYMIYCDKCSVWQHIDCMGID, for which the protein stability index was determined as 2.12.

For the variant HDDGYMIKCDKCSVWQHIDCMGID, the protein stability index was 2.25.
